Test results taken from US20170152300A1 (CSL, published 2017).
Values joined by “and” are separate entries in the source; they are usually repeats but may differ in a detail not shown here. Equal entries are not always repeated.

B1: Hu-vWF[764-1270]-8His S764P-S766I (other)
chain: PLICRPPMVKLVCPADNLRAEGLECTKTCQNYDLECMSMGCVSGCLCPPGMVRHENRCVALERCPCFHQGKEYAPGETVKIGCNTCVCRDRKWNCTDHVCDATCSTIGMAHYLTFDGLKYLFPGECQYVLVQDYCGSNPGTFRILVGNKGCSHPSVKCKKRVTILVEGGEIELFDGEVNVKRPMKDETHFEVVESGRYIILLLGKALSVVWDRHLSISVVLKQTYQEKVCGLCGNFDGIQNNDLTSSNLQVEEDPVDFGNSWKVSSQCADTRKVPLDSSPATCHNNIMKQTMVDSSCRILTSDVFQDCNKLVDPEPYLDVCIYDTCSCESIGDCACFCDTIAAYAHVCAQHGKVVTWRTATLCPQSCEERNLRENGYECEWRYNSCAPACQVTCQHPEPLACPVQCVEGCHAHCPPGKILDELLQTCVDPEDCPVCEVAGRRFASGKKVTLNPSDPEHCQICHCDVVNLTCEACQEPGGLVVPPTDAPVSPTTLYVEDISEPPLHDFHHHHHHHH

What was measured:
[1] = target: recombinant Factor VIII (as described in Zollner et al 2013) (Homo sapiens (Human)) (UniProt P00451); assay: SPR, anti-His capture
[2] = target: T1, recombinant Factor VIII (as described in Zollner et al 2013) (Homo sapiens (Human), UniProt P00451 20-2351); assay: SPR, anti-His capture
T1 construct: also called FVIII
T1 sequence: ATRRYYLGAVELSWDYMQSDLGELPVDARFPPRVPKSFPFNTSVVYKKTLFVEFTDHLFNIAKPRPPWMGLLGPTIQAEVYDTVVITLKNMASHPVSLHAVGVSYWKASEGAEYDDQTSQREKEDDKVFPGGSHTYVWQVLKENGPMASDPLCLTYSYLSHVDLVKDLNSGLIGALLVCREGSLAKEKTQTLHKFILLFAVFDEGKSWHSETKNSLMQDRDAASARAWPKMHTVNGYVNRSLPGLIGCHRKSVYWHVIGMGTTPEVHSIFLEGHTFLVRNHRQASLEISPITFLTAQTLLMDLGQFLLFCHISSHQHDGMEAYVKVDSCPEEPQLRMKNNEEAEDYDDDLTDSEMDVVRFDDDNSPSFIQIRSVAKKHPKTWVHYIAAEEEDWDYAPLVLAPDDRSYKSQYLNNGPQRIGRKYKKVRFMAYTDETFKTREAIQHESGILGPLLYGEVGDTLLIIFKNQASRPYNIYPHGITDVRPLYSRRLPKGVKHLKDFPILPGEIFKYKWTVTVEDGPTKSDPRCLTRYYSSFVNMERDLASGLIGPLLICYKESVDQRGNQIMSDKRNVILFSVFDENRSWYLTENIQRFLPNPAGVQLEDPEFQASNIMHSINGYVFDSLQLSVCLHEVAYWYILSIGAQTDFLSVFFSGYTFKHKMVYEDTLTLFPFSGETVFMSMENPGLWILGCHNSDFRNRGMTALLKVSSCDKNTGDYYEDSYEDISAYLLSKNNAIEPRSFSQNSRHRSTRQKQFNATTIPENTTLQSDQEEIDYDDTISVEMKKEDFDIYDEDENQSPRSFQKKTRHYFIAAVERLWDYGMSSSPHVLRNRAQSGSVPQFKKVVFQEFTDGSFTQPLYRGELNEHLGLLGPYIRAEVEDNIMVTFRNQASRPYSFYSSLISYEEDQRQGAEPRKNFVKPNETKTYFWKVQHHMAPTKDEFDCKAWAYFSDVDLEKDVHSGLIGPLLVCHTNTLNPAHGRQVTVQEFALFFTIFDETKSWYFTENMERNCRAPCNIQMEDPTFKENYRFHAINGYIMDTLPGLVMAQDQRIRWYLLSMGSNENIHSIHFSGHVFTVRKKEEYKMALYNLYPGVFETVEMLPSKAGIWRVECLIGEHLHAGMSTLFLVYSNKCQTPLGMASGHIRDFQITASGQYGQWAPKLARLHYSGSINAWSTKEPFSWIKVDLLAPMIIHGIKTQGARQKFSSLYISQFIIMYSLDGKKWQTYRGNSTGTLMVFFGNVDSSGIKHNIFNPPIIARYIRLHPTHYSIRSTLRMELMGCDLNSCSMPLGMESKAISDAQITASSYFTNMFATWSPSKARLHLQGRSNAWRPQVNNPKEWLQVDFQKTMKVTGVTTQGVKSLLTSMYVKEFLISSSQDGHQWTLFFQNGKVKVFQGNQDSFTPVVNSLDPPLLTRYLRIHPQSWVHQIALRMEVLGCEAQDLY
Description: Binding kinetics were investigated by surface plasmon resonance using a Biacore 4000 biosensor at 37° C. Each mutant was captured from cell culture medium to a density of 40-150RU on a CM-5 sensor chip pre-immobilised with anti-His antibody (14,000 RU). In an initial screening study, FVIII was injected over the captured mutants for 5 minutes at 1 nM and dissociation monitored for 5 minutes.
All sensorgrams were double referenced by subtraction of signals from a reference spot (containing only immobilised anti His antibody) and from a blank injection. Binding kinetics were determined by fitting the double referenced sensorgrams to a 1:1 kinetic model.

Molecule	Kd [1]	koff [1]	kon [1]	fold decrease in off-rate vs wild type [2] [fold]	fold increase in affinity vs wild type [2] [fold]
Hu-vWF[764-1270]-8His dupS764/S764P/S766I	0.255 nM and 0.199 nM	0.00159 s⁻¹ and 0.0025 s⁻¹	6.23e+06 M⁻¹ s⁻¹ and 1.25e+07 M⁻¹ s⁻¹		
B1				22	30
